Target: hexon protein of recombinant chimpanzee adenovirus C68 (AdC68), free hexon trimer (AEX-HPLC "impurity" peak) (chimpanzee adenovirus C68)
Experiment: native MS; native SEC-HPLC/MS of the AEX-HPLC "impurity" fraction; BEH SEC 200Å column, isocratic 40 mM ammonium formate, 25°C; Orbitrap EMR, gentle source parameters to keep non-covalent complexes assembled

hexon protein of recombinant chimpanzee adenovirus C68 (AdC68), free hexon trimer (AEX-HPLC "impurity" peak) (natural protein)
stoichiometry N: 3

— PMC9017566
